From patent US20260015399A1 (Boehringer Ingelheim, published 2026)
*1 amine or outer side, *2 acyl side, *3 side chain or, on linkers, in order; H or OH if unused. Side-chain parts run from the residue outwards. The star is where a group is joined. C18 diacid = O=C(O)CCCCCCCCCCCCCCCCC(=O)*; γGlu = O=C(O)[C@H](CCC(=O)[*:2])N[*:1]; Isovaleryl = CC(C)CC(=O)*; Ahx = NCCCCCC(=O)O

T1: human NPY2 receptor (human, UniProt P49146 1-381)
T1 construct: whole, on cells; also called hNPY2-R; hNPY2R
T1 sequence (looked up): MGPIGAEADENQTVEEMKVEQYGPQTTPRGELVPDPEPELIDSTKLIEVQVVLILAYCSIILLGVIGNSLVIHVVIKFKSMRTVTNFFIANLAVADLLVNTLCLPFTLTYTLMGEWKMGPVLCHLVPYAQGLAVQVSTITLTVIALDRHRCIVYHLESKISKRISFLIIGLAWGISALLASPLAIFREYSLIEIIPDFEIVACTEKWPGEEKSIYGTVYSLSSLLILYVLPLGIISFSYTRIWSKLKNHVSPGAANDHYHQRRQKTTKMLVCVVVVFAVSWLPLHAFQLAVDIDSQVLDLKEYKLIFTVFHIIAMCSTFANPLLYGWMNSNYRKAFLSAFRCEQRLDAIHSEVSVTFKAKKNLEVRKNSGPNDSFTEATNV

B1: Compound 87 (peptide)
peptide: Isovaleryl-APEK([Ahx-γGlu-C18 diacid])PEEDATPEELQRYYVPLRHYYNWLTRQRY-NH2
SMILES: CC(C)CC(=O)N[C@@H](C)C(=O)N1CCC[C@H]1C(=O)N[C@@H](CCC(=O)O)C(=O)N[C@@H](CCCCNC(=O)CCCCCNC(=O)CC[C@H](NC(=O)CCCCCCCCCCCCCCCCC(=O)O)C(=O)O)C(=O)N1CCC[C@H]1C(=O)N[C@@H](CCC(=O)O)C(=O)N[C@@H](CCC(=O)O)C(=O)N[C@@H](CC(=O)O)C(=O)N[C@@H](C)C(=O)N[C@H](C(=O)N1CCC[C@H]1C(=O)N[C@@H](CCC(=O)O)C(=O)N[C@@H](CCC(=O)O)C(=O)N[C@@H](CC(C)C)C(=O)N[C@@H](CCC(N)=O)C(=O)N[C@@H](CCCNC(=N)N)C(=O)N[C@@H](Cc1ccc(O)cc1)C(=O)N[C@@H](Cc1ccc(O)cc1)C(=O)N[C@H](C(=O)N1CCC[C@H]1C(=O)N[C@@H](CC(C)C)C(=O)N[C@@H](CCCNC(=N)N)C(=O)N[C@@H](Cc1c[nH]cn1)C(=O)N[C@@H](Cc1ccc(O)cc1)C(=O)N[C@@H](Cc1ccc(O)cc1)C(=O)N[C@@H](CC(N)=O)C(=O)N[C@@H](Cc1c[nH]c2ccccc12)C(=O)N[C@@H](CC(C)C)C(=O)N[C@H](C(=O)N[C@@H](CCCNC(=N)N)C(=O)N[C@@H](CCC(N)=O)C(=O)N[C@@H](CCCNC(=N)N)C(=O)N[C@@H](Cc1ccc(O)cc1)C(N)=O)[C@@H](C)O)C(C)C)[C@@H](C)O
B2: Compound 88 (peptide)
peptide: Isovaleryl-APEK([Ahx-γGlu-C18 diacid])PEEDATPEELQRQYVSLRHYYNWLTRQRY-NH2
SMILES: CC(C)CC(=O)N[C@@H](C)C(=O)N1CCC[C@H]1C(=O)N[C@@H](CCC(=O)O)C(=O)N[C@@H](CCCCNC(=O)CCCCCNC(=O)CC[C@H](NC(=O)CCCCCCCCCCCCCCCCC(=O)O)C(=O)O)C(=O)N1CCC[C@H]1C(=O)N[C@@H](CCC(=O)O)C(=O)N[C@@H](CCC(=O)O)C(=O)N[C@@H](CC(=O)O)C(=O)N[C@@H](C)C(=O)N[C@H](C(=O)N1CCC[C@H]1C(=O)N[C@@H](CCC(=O)O)C(=O)N[C@@H](CCC(=O)O)C(=O)N[C@@H](CC(C)C)C(=O)N[C@@H](CCC(N)=O)C(=O)N[C@@H](CCCNC(=N)N)C(=O)N[C@@H](CCC(N)=O)C(=O)N[C@@H](Cc1ccc(O)cc1)C(=O)N[C@H](C(=O)N[C@@H](CO)C(=O)N[C@@H](CC(C)C)C(=O)N[C@@H](CCCNC(=N)N)C(=O)N[C@@H](Cc1c[nH]cn1)C(=O)N[C@@H](Cc1ccc(O)cc1)C(=O)N[C@@H](Cc1ccc(O)cc1)C(=O)N[C@@H](CC(N)=O)C(=O)N[C@@H](Cc1c[nH]c2ccccc12)C(=O)N[C@@H](CC(C)C)C(=O)N[C@H](C(=O)N[C@@H](CCCNC(=N)N)C(=O)N[C@@H](CCC(N)=O)C(=O)N[C@@H](CCCNC(=N)N)C(=O)N[C@@H](Cc1ccc(O)cc1)C(N)=O)[C@@H](C)O)C(C)C)[C@@H](C)O

Target: T1, human NPY2 receptor
Assay: RLB: displacement of 125I-PYY(1-36) from hNPY2R membranes

Binder | Ki
B1 | 22.4 nM
B2 | 16.3 nM
